From patent publication US20240294624A1, “ANTI-ERYTHROPOIETIN ANTIBODY” (ANDREMACON S.R.L., priority 2021, published 2024) come the findings set out here.

The test system of one data set is cancer cells. Kind of data set: Neutralizing anti-EPO bioassay (MTT). It counts as cell-based. As to conditions: nineteen anti-EPO hybridoma culture supernatants compared; 96 h. On the procedure:
The cell-based assay was used to measure the capacity of each clone to neutralize EPO signaling. […] Optical density values (O.D.) were recorded, and neutralizing activity of each clone was expressed as percentage of viability of cells treated with clones respect to control condition, BM (FIG. 1A).The best n=3 final clones were selected and specific monoclonal antibodies were separated and purified in PBS at PH7.4 sterilized by membrane filtration (produced in culture supernatant and purified by Protein A/G). Furthermore, anti-EPO monoclonal antibodies were sequenced by the following protocol: total RNA was extracted separately from several batches of cultured hybridoma cells, cDNA were then synthesized by reverse transcription using oligo-dT primers, and VH and VL were finally amplified by PCR. VH and VL fragments, respectively amplified by IgG degenerate primers and Kappa-specific primers, are represented by gel electrophoresis (FIG. 1B), confirming that isotypes were IgG Kappa.

The test system of data set [1] is HOC84 stem cells. As to conditions: naturally resistant to carboplatin, 96 h, CPT 40 μg/mL.
Protocol: HOC84, which are naturally resistant to carboplatin (CPT), were cultured for 96 h in basal condition supplemented with 40 μg/mL of CPT. Cell viability was assessed by 3-(4,5-Dimethylthiazol-2-yl)-2,5-Diphenyl-tetrazoliumBromide (MTT) assay, as a function of redox potential (FIG. 24). […] Then, culture media were replaced with fresh media containing the specific treatments, or in BM as a control condition (CTR).
Test was performed in triplicate after 96 h of treatment, by replacing culture media with 100 μL of fresh media added with 10 μL of MTT 5 mg/ml in D-PBS. After 4 h of incubation, media were removed and cells were lysed with 100 μL of 2-propanol/formic acid (95:5, by vol) for 10 min.
Data set [2] relates to HOC84 stem cells. The experiment in a line: Gene expression by RealTime PCR. It counts as cell-based, human. Conditions: 72 h. On the procedure:
The analysis was performed by the assessment of gene expression by RealTime PCR on genes related to apoptosis (FIG. 23A), proliferation (FIG. 23B), angiogenesis (FIG. 23C), and inflammation (FIG. 23D). HOC84 stem cells (2×10^5) were seeded into 25 cm2 collagen-coated culture flasks. […] At the end, total RNA was extracted following TRI-Reagent protocol and quantified with NanoDrop 1000 Spectro-photometer (Thermo Fisher Scientific). Reverse transcriptase reaction was executed using TranScriba Kit (A&A Biotechnology), loading 1 μg of RNA (A260/A280>1.8), according to manufacturer's instructions. qRT-PCR was performed using StepOnePlus™ (Thermo Fisher Scientific), 1 μg of cDNA, forward and reverse primers (250 nM each) Titan HotTaq EvaGreen® qPCR Mix (Bioatlas). Data were normalized to 18S expression, used as endogenous control. Relative gene expression was determined using the 2−ΔΔCt method (FIG. 23).

The test system of the next data set is K562. Kind of data set: MTT cell viability assay. As to conditions: 96 hours, 6 μg/ml. It counts as cell-based, human. The source says: H. Myelogenous leukemia cell line (K562); chronic myeloid leukemia cells. Circulating […] levels are reliably higher in myelodysplastic syndromes than in healthy people, with a negative predictive role;
For orientation: Tetrazolium dyes change colour on reduction, which living cells bring about.

The test system of a further data set is primary GECs. The experiment in a line: MTT cell viability assay. It counts as cell-based, human. As to conditions: 96 hours, anti-EPO (C4) 6 μg/ml, TMZ 100 μM, FTY720 100 nM. From the text: B. Primary glioblastoma endothelial cells (GECs).
Another data set concerns N9 microglia cells. The experiment in a line: Microglia proliferation and morphology after LPS. As to conditions: after LPS stimulation. It is filed as cell-based, murine. On the procedure: N9 microglial cells were seeded in multiwell plates at a concentration of 1.5×10^4 for 24 hours. The following day the cells were administered the following treatments for 24 hours: • LPS; • Anti-EPO (c4) antibody administered alone; • Anti-EPO (c4) antibody in combination with LPS • Anti-EPO (c4) antibody in combination with LPS and FTY720
N9 cells were detached with enzyme, and an aliquot of known volume was labeled with trypan blue and observed under the microscope for counting. Considering that the number of cells in the culture control, without any treatment, as being 100, the percentage of proliferation of N9 cultured in presence of LPS, anti-EPO (C4) antibody, combination of LPS and anti-EPO antibody was calculated (FIG. 15B).
N9 cells were cultured in Iscove's Modified Dulbecco's MEM, IMDM containing streptomycin/1× penicillin and 2 mM L-glutamine, supplemented with FBS (fetal bovine serum) at 5%. The cells were plated at a concentration of 1.5×10^4 cells/cm2 and kept in a thermostatic incubator at 37° C., with 5% C02, for 24 hours, as above. The next day, the cells were exposed to different treatments for 48 hours. At the end of the treatments, cell viability and proliferation were assessed by staining with trypan blue and observed under the microscope for counting.
The microglia were maintained in a basal culture medium and then activated with lipopolysaccharide (LPS). […]

In the next data set the test system is DLD1. Kind of data set: MTT cell viability assay. It is filed as cell-based, human. Conditions: 96 hours, 6 μg/ml.

Protocol for DLD1: Cell viability was assessed by 3-(4,5-Dimethylthiazol-2-yl)-2,5-Diphenyl-tetrazoliumBromide (MTT) assay, as a function of redox potential (FIGS. 2-7). Cells (5×10^3/well) were seeded and cultured in 96-well plate for 24 h in Basal Medium (BM). Then, culture media were replaced with fresh media containing the specific treatments, or in BM as a control condition (CTR).
Test was performed in triplicate after 96 h of treatment, by replacing culture media with 100 μL of fresh media added with 10 μL of MTT 5 mg/ml in D-PBS. After 4 h of incubation, media were removed and cells were lysed with 100 μL of 2-propanol/formic acid (95:5, by vol) for 10 min. Then, absorbance was read at 570 nm in microplate reader.

B1: anti-EPO (C4): isolated anti-Erythropoietin monoclonal antibody, VL SEQ ID NO:6, VH SEQ ID NO:14, hybridoma DSM ACC 3370 (antibody, listed as Homo sapiens, V domains shown)
VH: EVKLQESGGGLVQPGGSLKLSCAASGFTFSTYTMSWVRQTPEKRLEWVAYISNGGDRTYYPDTVKGRFTISRDDAKNTLFLQMSSLKSEDTAMYYCARHNITTVPFTMDYWGQGTSVTVSS
VL: DIVLTQSPASLAVSLGQRATISCRASESVDYYGTGLMQWYQQRPGQPPKLLIYGASNVGSGVPARFSGSGSGTDFSLNIHPVEGDDIAMYFCQQTRKVPSTFGGGTKLEIK
modifications: VH amino acid sequence; VL amino acid sequence
For the molecule B1, the “neutralizing activity (inhibition of cancer cell viability)” value in the data set with cancer cells is reported as “higher neutralizing activity”. The mortality in the data set with HOC84 stem cells [1] amounted to 66%. In addition, in the data set with HOC84 stem cells [2], the “expression of genes related to angiogenesis” value is “significantly inhibits proliferation and angiogenesis”; the “expression of genes related to apoptosis” value is “increases apotosis and inflammation”; the “expression of genes related to inflammation” value was “higher expressed”. Also, the “cells initially plated dead” value with K562 was 62%. The “cells initially seeded dead” value in the data set on primary GECs is recorded as approximately 70%. Further, in the data set on N9 microglia cells, the morphology of microglia result was “recover or maintain a branched morphology”. In addition, the “cells initially plated dead” value with DLD1 is 73%.

A word on the mortality: it is the percentage killed. A low value points to more survivors.
